No end group written: not given here.
Target: T1, SpyCatcher002‐mut (H26Q H62Q), cleaved with TEV protease
T1 construct: Second-generation SpyCatcher (SC002) redesigned with H26Q and H62Q; also called SC1m; SCm; source: recombinant, purified; not shown: HisTag, N-terminal, cleaved
Assay: LC-MS of the covalent adduct; 25 μM each in 20 mM HEPES, pH 7.4, room temperature, injected after 5 min; isopeptide-bonded ST/SC adduct detected by MS; repeated with Cu2+ without effect on adduct formation
Settings: both partners purified

T1 sequence (chain, as listed by the source): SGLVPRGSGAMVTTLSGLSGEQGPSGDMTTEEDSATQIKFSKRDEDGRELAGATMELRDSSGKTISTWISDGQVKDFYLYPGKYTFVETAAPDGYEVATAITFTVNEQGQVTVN

B1: ATCUN(DAH)‐SpyTag002 (peptide)
peptide: DAHVPTIVMVDAYKRY-NH2
notes: SpyTag002 peptide with an N-terminal DAH ATCUN copper site; lacks the last lysine and ends with an amidated tyrosine; also called ST‐A2; ST; source: synthetic peptide (solid‐phase peptide synthesis, RP‐HPLC)
Question: Does B1 bind?
Answer: Result: binds

B2: ATCUN(GSH)‐SpyTag002 (peptide)
peptide: GSHVPTIVMVDAYKRYK
notes: SpyTag002 peptide with an N-terminal GSH ATCUN copper site; also called ST‐A1; ST; source: synthetic peptide (solid‐phase peptide synthesis, RP‐HPLC)
Question: Does B2 bind?
Answer: Result: binds

— article PMC12278347, “Exploiting SpyTag/SpyCatcher Technology to Design New Artificial Catalytic Copper Proteins” (Chembiochem, 2025)
